Laboratory results taken from patent publication US20130040886A1 (BOARD OF TRUSTEES OF THE UNIVERSITY OF ILLINOIS, published 2013).
One block for each binder: values may come before it.

Columns and labels:
[1] = biological target: T1, α11bβ3 integrin (platelet integrin αIIbβ3) from solubilized human platelets (human, UniProt P08514 32-1039; P05106 27-788); experiment: peptide affinity column with solubilized human platelets, immunoblot of eluate
T1 construct: mature; Native protein from solubilized human platelets, detected by immunoblot with Abcam antibodies
Excerpt: (§1) On this basis, subsequent experiments examined whether G₁₃SR2ₚₑₚ peptide (SEQ ID NO:5) does indeed directly interact with α11bβ₃ and/or one of its associated proteins in human platelets. In this respect, platelet α11bβ₃ integrin is known to exist in a complex with two cytoplasmic proteins, i.e., talin and kindlin-3 (Tadokoro, et al. (2003) Science 302:103-6; Moser, et al. (2008) Nature Med. 14:325-30). To determine whether G₁₃SR2ₚₑₚ, (SEQ ID NO:5) interacts with any of these proteins (or with the entire α11bβ₃, talin, kindlin-3 complex), peptide affinity columns using G₁₃SR2ₚₑₚ (SEQ ID NO:5) were employed. The affinity purified protein(s) from solubilized human platelets that specifically bound to the G₁₃SR2ₚₑₚ peptide were eluted, and analyzed by western blot for α11bβ₃ integrin, talin and kindlin-3. In similar experiments, the eluates from a peptide column using the G₁₃SR2-Random Peptide (SEQ ID NO:9) were also analyzed. […] This was supported by similar experiments using talin antibodies and the kindlin 3 antibody (Abcam).

[2] = biological target: T2, kindlin 3 (72 kD) from solubilized human platelets (human, UniProt Q86UX7 1-667); experiment: as above
T2 construct: mature; Native cytoplasmic protein from solubilized human platelets
T2 sequence (Q86UX7 whole entry): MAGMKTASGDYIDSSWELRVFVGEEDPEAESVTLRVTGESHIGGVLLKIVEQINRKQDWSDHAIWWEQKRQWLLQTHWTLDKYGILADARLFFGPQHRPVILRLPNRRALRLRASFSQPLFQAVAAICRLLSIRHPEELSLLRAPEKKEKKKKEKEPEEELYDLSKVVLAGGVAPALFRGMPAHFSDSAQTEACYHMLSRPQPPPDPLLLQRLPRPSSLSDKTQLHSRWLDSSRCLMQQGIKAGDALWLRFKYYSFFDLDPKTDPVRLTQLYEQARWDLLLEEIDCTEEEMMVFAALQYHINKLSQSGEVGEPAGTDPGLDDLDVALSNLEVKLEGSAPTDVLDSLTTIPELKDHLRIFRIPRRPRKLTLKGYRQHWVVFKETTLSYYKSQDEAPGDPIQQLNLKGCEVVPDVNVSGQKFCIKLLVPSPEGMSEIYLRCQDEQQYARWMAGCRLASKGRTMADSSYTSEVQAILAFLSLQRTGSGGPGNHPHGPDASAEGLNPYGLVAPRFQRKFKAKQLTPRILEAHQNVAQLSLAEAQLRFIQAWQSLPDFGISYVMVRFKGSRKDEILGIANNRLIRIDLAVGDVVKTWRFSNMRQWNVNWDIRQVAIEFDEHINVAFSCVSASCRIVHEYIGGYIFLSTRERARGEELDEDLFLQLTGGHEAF
Excerpt: as §1

[3] = biological target: T3, α11bβ3-talin-kindlin 3 complex from solubilized human platelets (human, UniProt P08514 32-1039; P05106 27-788; Q9Y490 1-2541; Q86UX7 1-667); experiment: as above
T3 construct: mature
Excerpt: as §1

[4] = biological target: T1, α11bβ3 integrin (platelet integrin …); experiment: peptide affinity column with solubilized human platelets, western blot of eluates
Excerpt: as §1

[5] = biological target: T2, kindlin 3 (72 kD) from solubilized …; experiment: as above
Excerpt: as §1

binding result [1]: binds | binding result [2]: binds | binding result [3]: binds
B1: G13 Switch Region 2 peptide (G13SR2pep), Val-Gly-Gly-Gln-Arg-Ser-Glu-Arg-Lys-Arg-Trp-Phe-Glu-Cys-Phe-Asp-Ser (peptide)
peptide: VGGQRSERKRWFECFDS
notes: how it was coupled is not described; also called G13SR2pep peptide; Gα13 SR2 peptide

binding result [4]: no binding | binding result [5]: no binding
B2: G13SR2-Random Peptide, Gly-Phe-Asp-Glu-Trp-Glu-Val-Ser-Phe-Lys-Gly-Cys-Gln-Arg-Arg-Ser-Arg (peptide)
peptide: GFDEWEVSFKGCQRRSR
notes: Control peptide immobilised on a peptide column; also called Random Peptide control
